Reference: patent US20220153864A1

Key:
[1] = target: 32 different targets including GPC3, GPC5, and other TNF receptor proteins; assay: off-target ELISA on 32 coated targets, sum of the ratios at 100 nM and 10 nM
[2] = target: 32 different targets including GPC3, GPC5, and other TNF receptor proteins; assay: off-target ELISA on 32 coated targets, binder at 10 nM, signals normalized to control antibody SEQ ID NOs: 106 and 107 and summed
[3] = target: 32 different targets including GPC3, GPC5, and other TNF receptor proteins; assay: off-target ELISA on 32 coated targets, binder at 100 nM, signals normalized to control antibody SEQ ID NOs: 106 and 107 and summed

sum of cumulative binding ratios [1]: 129
cumulative binding ratio [2]: 48
cumulative binding ratio [3]: 81
B1: GPC3 antibody as included in the fusion protein (SEQ ID NOs: 81 and 82) (antibody, human IgG4 S228P, kappa, F234A L235A, V domains shown)
VH: QVQLVQSGAEVKKPGASVKVSCKASGYTFTDYEMHWVRQAPGQGLEWMGALDPKTGDTAYSQKFKGRVTLTADKSTSTAYMELSSLTSEDTAVYYCTRFYSYTYWGQGTLVTLVS
VL: DVVMTQSPLSLPVTPGEPASISCRSSQSLVHSNRNTYLHWYLQKPGQSPQLLIYKVSNRFSGVPDRFSGSGSGTDFTLKISRVEAEDVGVYYCSQNTHVPPTFGQGTKLEIKR
